Biological target: T1, GFP-PAK1^S79A (UniProt Q13153 1-545, S79A)
T1 construct: source: 293T cells, expressed, in cell extract / lysate
Test: co-IP; GFP-PAK1 (WT or S79A) coexpressed with Myc-Cdc42 in 293T cells; extracts immunoprecipitated with anti-GFP, blotted with anti-Myc; lysis buffer 50 mM HEPES pH 7.4, 150 mM NaCl, 1 mM EDTA, 10% glycerol, 1% Triton X100 with phosphatase inhibitors; antibodies overnight at 4°C
Details: partners not purified

T1 sequence (Q13153 whole entry S79A): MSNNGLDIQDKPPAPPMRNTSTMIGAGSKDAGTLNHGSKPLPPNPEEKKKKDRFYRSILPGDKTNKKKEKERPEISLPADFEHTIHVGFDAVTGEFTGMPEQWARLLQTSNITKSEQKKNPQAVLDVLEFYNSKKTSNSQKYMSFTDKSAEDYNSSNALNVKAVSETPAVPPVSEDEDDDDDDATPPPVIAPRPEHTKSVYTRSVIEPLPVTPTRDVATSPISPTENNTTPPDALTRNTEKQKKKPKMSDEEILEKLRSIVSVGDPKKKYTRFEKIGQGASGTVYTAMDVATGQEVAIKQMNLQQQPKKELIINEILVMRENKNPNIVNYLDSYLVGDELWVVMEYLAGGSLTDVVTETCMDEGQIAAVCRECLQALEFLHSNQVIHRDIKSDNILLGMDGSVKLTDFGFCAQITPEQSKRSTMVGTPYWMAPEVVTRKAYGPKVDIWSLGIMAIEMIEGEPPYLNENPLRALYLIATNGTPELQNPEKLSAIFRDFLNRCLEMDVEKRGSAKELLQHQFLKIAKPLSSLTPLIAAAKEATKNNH

- fold reduction of binding against wild type PAK1: ~3 fold
B1: Myc-Cdc42 (natural protein)
chain: not shown
notes: Rho GTPase Cdc42; source: 293T cells, coexpressed, in cell extract

Reference: paper PMC3731272, “Evidence for a Novel Mechanism of the PAK1 Interaction with the Rho-GTPases Cdc42 and Rac” (PLoS ONE, 2013)
